The source of these data is patent US20050229275A1.

Experiment [1] concerns the target murine mAbGA733. The experiment in a line: competition ELISA: free GA733 (1-100 nM) varied, constant murine mAbGA733 (0.063 nM), plates coated with GA733.
Experiment [2] has as its target murine mAbGA733. The experiment in a line: competition ELISA, free GA733 against coated GA733. In general terms: ELISA stands for enzyme-linked immunosorbent assay.
The target of experiment [3] is plant produced CO17-1A of Example 9. The experiment is described as follows: competition ELISA: free GA733 (1-100 nM) varied, constant plant CO17 (1/500 dilution; protein A purified and ammonium sulfate fractionated preparations alike), plates coated with GA733.
The target in experiment [4] is colorectal cancer-associated antigen (Ag) GA733-2 (UniProt P16422). The experiment is described as follows: ELISA, leaf extract on plates coated with Ag GA733-2, anti-mouse IgG peroxidase (whole molecule).
For experiment [5] the target is unchanged. The experiment is described as follows: ELISA, N. benthamiana leaf extract on plates coated with Ag GA733-2, anti-mouse IgG peroxidase (whole molecule or Fc specific).

“colorectal cancer-associated antigen (Ag) GA733-2 (from UniProt P16422 24-265)”: the IC50 (usually the concentration at which inhibition is half-maximal) in experiment [1] was 35 nM; in experiment [3], 6.3 nM. Besides, the fold higher antigen concentration for 50% inhibition, against plant expressed CO17-1A in experiment [2] was 5 fold.

B1: plant-produced rAB CO17-1A expressed from AlMV vectors A3a17-1ALC and A3b17-1AHC in Rep plants (antibody, INN chains, looked up, V domains shown)
VH: QVQLQQSGAELVRPGTSVKVSCKASGYAFTNYLIEWVKQRPGQGLEWIGVINPGSGGTNYNEKFKGKATLTADKSSSTAYMQLSSLTSDDSAVYFCARDGPWFAYWGQGTLVTVSA
VL: NIVMTQSPKSMSMSVGERVTLTCKASENVVTYVSWYQQKPEQSPKLLIYGASNRYTGVPDRFTGSGSATDFTLTISSVQAEDLADYHCGQGYSYPYTFGGGTKLEIK
modifications: plant-produced
On to B1, for which the fold OD490 nm over controls (NI, HC, LC) in experiment [4] is 2 to 3 fold.

B2: plant-produced rAb CO17-1A expressed from TMV vectors 30B-17HCK and 30B-17LC in Nicotiana benthamiana (antibody, INN chains, looked up, V domains shown, part only)
VH: B1 VH
VL: B1 VL
modifications: plant-produced, His tag
B2 returned a fold O.D.490 over controls (NI, HC, LC) in experiment [5] of 2 to 3 fold.
